Laboratory results taken from IntAct's records for PubMed 31515488.

B1: Four and a half LIM domains protein 2 (Homo sapiens), Q14192 (parent)
chain: MTERFDCHHCNESLFGKKYILREESPYCVVCFETLFANTCEECGKPIGCDCKDLSYKDRHWHEACFHCSQCRNSLVDKPFAAKEDQLLCTDCYSNEYSSKCQECKKTIMPGTRKMEYKGSSWHETCFICHRCQQPIGTKSFIPKDNQNFCVPCYEKQHAMQCVQCKKPITTGGVTYREQPWHKECFVCTACRKQLSGQRFTARDDFAYCLNCFCDLYAKKCAGCTNPISGLGGTKYISFEERQWHNDCFNCKKCSLSLVGRGFLTERDDILCPDCGKDI
partner: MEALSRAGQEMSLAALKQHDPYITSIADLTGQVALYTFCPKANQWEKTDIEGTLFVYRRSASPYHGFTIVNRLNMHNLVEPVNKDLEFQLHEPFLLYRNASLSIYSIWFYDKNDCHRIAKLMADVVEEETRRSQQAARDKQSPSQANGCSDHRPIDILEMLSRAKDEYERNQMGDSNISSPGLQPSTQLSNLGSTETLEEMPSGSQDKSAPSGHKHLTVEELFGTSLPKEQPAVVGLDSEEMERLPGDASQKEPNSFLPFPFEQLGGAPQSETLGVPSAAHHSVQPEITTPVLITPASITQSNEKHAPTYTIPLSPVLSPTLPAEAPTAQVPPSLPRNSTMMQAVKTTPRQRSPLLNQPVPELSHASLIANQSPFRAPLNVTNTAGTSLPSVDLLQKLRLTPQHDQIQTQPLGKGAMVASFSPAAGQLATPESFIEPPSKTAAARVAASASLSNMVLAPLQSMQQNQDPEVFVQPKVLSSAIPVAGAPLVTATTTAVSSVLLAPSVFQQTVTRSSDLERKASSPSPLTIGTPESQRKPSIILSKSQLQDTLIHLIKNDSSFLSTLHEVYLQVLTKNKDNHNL
B2: Notch homolog 2 N-terminal-like protein A (Homo sapiens), Q7Z3S9 (parent)
chain: MCVTYHNGTGYCKCPEGFLGEYCQHRDPCEKNRCQNGGTCVAQAMLGKATCRCASGFTGEDCQYSTSHPCFVSRPCLNGGTCHMLSRDTYECTCQVGFTGKECQWTDACLSHPCANGSTCTTVANQFSCKCLTGFTGQKCETDVNECDIPGHCQHGGTCLNLPGSYQCQCLQGFTGQYCDSLYVPCAPSPCVNGGTCRQTGDFTFECNCLPETVRRGTELWERDREVWNGKEHDEN
partner: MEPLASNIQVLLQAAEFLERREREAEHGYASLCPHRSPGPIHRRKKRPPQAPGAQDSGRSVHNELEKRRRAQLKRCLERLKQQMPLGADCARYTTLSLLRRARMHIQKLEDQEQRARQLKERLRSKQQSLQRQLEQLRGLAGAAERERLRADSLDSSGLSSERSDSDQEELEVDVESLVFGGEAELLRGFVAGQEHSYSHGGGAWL
B3: Zinc finger protein Aiolos (Homo sapiens), Q9UKT9 (parent)
chain: MEDIQTNAELKSTQEQSVPAESAAVLNDYSLTKSHEMENVDSGEGPANEDEDIGDDSMKVKDEYSERDENVLKSEPMGNAEEPEIPYSYSREYNEYENIKLERHVVSFDSSRPTSGKMNCDVCGLSCISFNVLMVHKRSHTGERPFQCNQCGASFTQKGNLLRHIKLHTGEKPFKCHLCNYACQRRDALTGHLRTHSVEKPYKCEFCGRSYKQRSSLEEHKERCRTFLQSTDPGDTASAEARHIKAEMGSERALVLDRLASNVAKRKSSMPQKFIGEKRHCFDVNYNSSYMYEKESELIQTRMMDQAINNAISYLGAEALRPLVQTPPAPTSEMVPVISSMYPIALTRAEMSNGAPQELEKKSIHLPEKSVPSERGLSPNNSGHDSTDTDSNHEERQNHIYQQNHMVLSRARNGMPLLKEVPRSYELLKPPPICPRDSVKVINKEGEVMDVYRCDHCRVLFLDYVMFTIHMGCHGFRDPFECNMCGYRSHDRYEFSSHIARGEHRALLK
partner: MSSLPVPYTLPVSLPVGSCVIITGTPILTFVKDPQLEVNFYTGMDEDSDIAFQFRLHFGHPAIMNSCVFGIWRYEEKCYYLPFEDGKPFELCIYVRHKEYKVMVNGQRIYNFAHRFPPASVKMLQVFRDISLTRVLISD
B4: Protein RD3 (Homo sapiens), Q7Z3Z2 (parent)
chain: MSLISWLRWNEAPSRLSTRSPAEMVLETLMMELTGQMREAERQQRERSNAVRKVCTGVDYSWLASTPRSTYDLSPIERLQLEDVCVKIHPSYCGPAILRFRQLLAEQEPEVQEVSQLFRSVLQEVLERMKQEEEAHKLTRQWSLRPRGSLATFKTRARISPFASDIRTISEDVERDTPPPLRSWSMPEFRAPKAD
B5: Protein FAM168A (Homo sapiens), Q92567 (parent)
chain: MNPVYSPVQPGAPYGNPKNMAYTGYPTAYPAAAPAYNPSLYPTNSPSYAPEFQFLHSAYATLLMKQAWPQNSSSCGTEGTFHLPVDTGTENRTYQASSAAFRYTAGTPYKVPPTQSNTAPPPYSPSPNPYQTAMYPIRSAYPQQNLYAQGAYYTQPVYAAQPHVIHHTTVVQPNSIPSAIYPAPVAAPRTNGVAMGMVAGTTMAMSAGTLLTTPQHTAIGAHPVSMPTYRAQGTPAYSYVPPHW
partner: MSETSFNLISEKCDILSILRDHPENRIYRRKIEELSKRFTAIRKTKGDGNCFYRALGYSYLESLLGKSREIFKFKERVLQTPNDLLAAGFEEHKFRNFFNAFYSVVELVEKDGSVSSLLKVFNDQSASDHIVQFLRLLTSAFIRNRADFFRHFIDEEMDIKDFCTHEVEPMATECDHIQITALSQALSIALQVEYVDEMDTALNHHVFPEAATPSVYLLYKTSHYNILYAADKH
B6: Breast cancer anti-estrogen resistance protein 3 (Homo sapiens), O75815-1 (parent)
chain: MAAGKFASLPRNMPVNHQFPLASSMDLLSSRSPLAEHRPDAYQDVSIHGTLPRKKKGPPPIRSCDDFSHMGTLPHSKSPRQNSPVTQDGIQESPWQDRHGETFTFRDPHLLDPTVEYVKFSKERHIMDRTPEKLKKELEEELLLSSEDLRSHAWYHGRIPRQVSENLVQRDGDFLVRDSLSSPGNFVLTCQWKNLAQHFKINRTVLRLSEAYSRVQYQFEMESFDSIPGLVRCYVGNRRPISQQSGAIIFQPINRTVPLRCLEEHYGTSPGQAREGSLTKGRPDVAKRLSLTMGGVQAREQNLPRGNLLRNKEKSGSQPACLDHMQDRRALSLKAHQSESYLPIGCKLPPQSSGVDTSPCPNSPVFRTGSEPALSPAVVRRVSSDARAGEALRGSDSQLCPKPPPKPCKVPFLKVPSSPSAWLNSEANYCELNPAFATGCGRGAKLPSCAQGSHTELLTAKQNEAPGPRNSGVNYLILDDDDRERPWEPAAAQMEKGQWDKGEFVTPLLETVSSFRPNEFESKFLPPENKPLETAMLKRAKELFTNNDPKVIAQHVLSMDCRVARILGVSEEMRRNMGVSSGLELITLPHGHQLRLDIIERHNTMAIGIAVDILGCTGTLEDRAATLSKIIQVAVELKDSMGDLYSFSALMKALEMPQITRLEKTWTALRHQYTQTAILYEKQLKPFSKLLHEGRESTCVPPNNVSVPLLMPLVTLMERQAVTFEGTDMWEKNDQSCEIMLNHLATARFMAEAADSYRMNAERILAGFQPDEEMNEICKTEFQMRLLWGSKGAQVNQTERYEKFNQILTALSRKLEPPPVKQAEL
partner: B6 chain
B7: Trichoplein keratin filament-binding protein (Homo sapiens), Q9BT92 (parent)
chain: MALPTLPSYWCSQQRLNQQLARQREQEARLRQQWEQNSRYFRMSDICSSKQAEWSSKTSYQRSMHAYQREKMKEEKRRSLEARREKLRQLMQEEQDLLARELEELRLSMNLQERRIREQHGKLKSAKEEQRKLIAEQLLYEHWKKNNPKLREMELDLHQKHVVNSWEMQKEEKKQQEATAEQENKRYENEYERARREALERMKAEEERRQLEDKLQAEALLQQMEELKLKEVEATKLKKEQENLLKQRWELERLEEERKQMEAFRQKAELGRFLRHQYNAQLSRRTQQIQEELEADRRILQALLEKEDESQRLHLARREQVMADVAWMKQAIEEQLQLERAREAELQMLLREEAKEMWEKREAEWARERSARDRLMSEVLTGRQQQIQEKIEQNRRAQEESLKHREQLIRNLEEVRELARREKEESEKLKSARKQELEAQVAERRLQAWEADQQEEEEEEEARRVEQLSDALLQQEAETMAEQGYRPKPYGHPKIAWN
partner: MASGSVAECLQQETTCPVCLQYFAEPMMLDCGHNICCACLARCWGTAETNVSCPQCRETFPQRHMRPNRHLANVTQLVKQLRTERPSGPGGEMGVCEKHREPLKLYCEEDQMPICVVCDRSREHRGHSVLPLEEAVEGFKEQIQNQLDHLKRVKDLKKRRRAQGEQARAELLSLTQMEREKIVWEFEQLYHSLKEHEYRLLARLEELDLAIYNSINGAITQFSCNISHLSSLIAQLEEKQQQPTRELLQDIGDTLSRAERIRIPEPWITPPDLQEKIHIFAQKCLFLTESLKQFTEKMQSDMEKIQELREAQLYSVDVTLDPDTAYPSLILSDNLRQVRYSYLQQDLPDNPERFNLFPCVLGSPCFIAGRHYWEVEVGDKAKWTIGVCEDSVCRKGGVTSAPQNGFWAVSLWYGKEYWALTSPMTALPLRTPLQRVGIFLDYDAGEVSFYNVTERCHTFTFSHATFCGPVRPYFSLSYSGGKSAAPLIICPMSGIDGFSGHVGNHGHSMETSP
B8: Glycodelin (Homo sapiens), P09466 (parent)
chain: MLCLLLTLGVALVCGVPAMDIPQTKQDLELPKLAGTWHSMAMATNNISLMATLKAPLRVHITSLLPTPEDNLEIVLHRWENNSCVEKKVLGEKTENPKKFKINYTVANEATLLDTDYDNFLFLCLQDTTTPIQSMMCQYLARVLVEDDEIMQGFIRAFRPLPRHLWYLLDLKQMEEPCRF
partner: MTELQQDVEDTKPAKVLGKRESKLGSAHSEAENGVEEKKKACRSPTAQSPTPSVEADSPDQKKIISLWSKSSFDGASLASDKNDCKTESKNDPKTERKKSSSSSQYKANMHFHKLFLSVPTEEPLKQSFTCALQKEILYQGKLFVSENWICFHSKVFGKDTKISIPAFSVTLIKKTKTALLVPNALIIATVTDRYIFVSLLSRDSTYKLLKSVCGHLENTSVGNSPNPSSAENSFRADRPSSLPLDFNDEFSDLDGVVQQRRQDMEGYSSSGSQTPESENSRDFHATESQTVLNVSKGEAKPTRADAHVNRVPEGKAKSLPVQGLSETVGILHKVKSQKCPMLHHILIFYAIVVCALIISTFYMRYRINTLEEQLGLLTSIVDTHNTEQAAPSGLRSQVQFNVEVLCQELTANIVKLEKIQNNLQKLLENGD

Variants of: B1
Conditions: with dcp1a_human DCP1A

| Variant | effect of a mutation on the interaction |
| --- | --- |
| N95K | with no effect |
| A37S | with no effect |

Variants of: B2
Conditions: with mad3_human MXD3, Q9BW11

| Variant | effect of a mutation on the interaction |
| --- | --- |
| R74Q | with no effect |
| A115T | with no effect |

Variants of: B3
Conditions: with ppl13_human LGALS14, Q8TCE9

| Variant | effect of a mutation on the interaction |
| --- | --- |
| N119D | with no effect |
| A24V | with no effect |

Variants of: B4
Conditions: with ei2ba_human EIF2B1, Q14232
Chain of ei2ba_human EIF2B1, Q14232 (Q14232 whole entry): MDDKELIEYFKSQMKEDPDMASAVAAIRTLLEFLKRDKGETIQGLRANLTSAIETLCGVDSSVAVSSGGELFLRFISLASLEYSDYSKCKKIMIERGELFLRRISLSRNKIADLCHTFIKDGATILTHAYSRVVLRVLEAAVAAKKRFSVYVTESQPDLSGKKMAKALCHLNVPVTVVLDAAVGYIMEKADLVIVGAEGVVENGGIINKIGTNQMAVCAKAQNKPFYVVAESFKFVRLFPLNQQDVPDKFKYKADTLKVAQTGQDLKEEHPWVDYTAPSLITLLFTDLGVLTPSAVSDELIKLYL

| Variant | effect of a mutation on the interaction |
| --- | --- |
| R167K | with no effect |

Variants of: B5
Conditions: with otub2_human OTUB2, Q96DC9

| Variant | effect of a mutation on the interaction |
| --- | --- |
| P122R | disrupting interaction strength |

Variants of: B6
Conditions: with bcar3_human BCAR3, O75815

| Variant | effect of a mutation on the interaction |
| --- | --- |
| P404S | with no effect |

Variants of: B7
Conditions: with tri27_human TRIM27, P14373

| Variant | effect of a mutation on the interaction |
| --- | --- |
| K127R | with no effect |

Variants of: B8
Conditions: with grm2b_human GRAMD2B

| Variant | effect of a mutation on the interaction |
| --- | --- |
| Q126K | with no effect |
